Measurements taken from doi:10.1101/2023.12.19.572309 (bioRxiv, 2023).

Biological target: ATG16L1-(StrepII^2x)ATG5–ATG12 complex (UniProt Q676U5;Q9H1Y0;O94817)
Experiment: BLI

Sequence of ATG16L1-(StrepII^2x)ATG5–ATG12 complex (Q676U5 whole entry, chain 1 of 3): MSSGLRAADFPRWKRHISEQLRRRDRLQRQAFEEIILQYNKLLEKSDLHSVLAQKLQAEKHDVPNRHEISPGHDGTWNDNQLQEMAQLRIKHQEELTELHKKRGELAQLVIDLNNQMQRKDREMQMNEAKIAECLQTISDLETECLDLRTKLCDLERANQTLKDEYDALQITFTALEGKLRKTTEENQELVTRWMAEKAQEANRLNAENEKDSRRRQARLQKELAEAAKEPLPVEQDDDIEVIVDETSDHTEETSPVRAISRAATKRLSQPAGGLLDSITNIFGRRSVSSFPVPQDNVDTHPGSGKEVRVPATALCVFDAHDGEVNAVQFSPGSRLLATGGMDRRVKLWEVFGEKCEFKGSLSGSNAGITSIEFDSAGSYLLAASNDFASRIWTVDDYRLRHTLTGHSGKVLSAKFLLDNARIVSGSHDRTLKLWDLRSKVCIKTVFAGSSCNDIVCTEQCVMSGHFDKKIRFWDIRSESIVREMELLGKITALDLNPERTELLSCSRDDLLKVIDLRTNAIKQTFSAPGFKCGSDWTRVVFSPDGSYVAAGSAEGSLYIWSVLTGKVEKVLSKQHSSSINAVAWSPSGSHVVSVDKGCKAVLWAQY
Sequence of ATG16L1-(StrepII^2x)ATG5–ATG12 complex (Q9H1Y0 whole entry, chain 2 of 3): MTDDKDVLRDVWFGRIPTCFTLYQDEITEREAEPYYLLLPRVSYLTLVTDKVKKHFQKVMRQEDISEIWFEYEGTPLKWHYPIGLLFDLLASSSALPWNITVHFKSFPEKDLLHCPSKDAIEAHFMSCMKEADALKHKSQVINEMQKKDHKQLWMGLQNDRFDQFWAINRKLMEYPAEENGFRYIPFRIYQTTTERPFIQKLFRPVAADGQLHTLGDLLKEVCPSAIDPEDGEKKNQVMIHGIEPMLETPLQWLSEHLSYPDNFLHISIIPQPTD
Sequence of ATG16L1-(StrepII^2x)ATG5–ATG12 complex (O94817 whole entry, chain 3 of 3): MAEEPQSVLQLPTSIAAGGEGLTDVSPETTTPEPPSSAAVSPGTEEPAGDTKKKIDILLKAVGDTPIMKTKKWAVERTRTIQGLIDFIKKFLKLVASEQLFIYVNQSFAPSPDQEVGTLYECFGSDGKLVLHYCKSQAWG

B1: 6xHis-3xFLAG-V1H(1-351) (domain or fragment)
chain: MTKMDIRGAVDAAVPTNIIAAKAAEVRANKVNWQSYLQGQMISAEDCEFIQRFEMKRSPEEKQEMLQTEGSQCAKTFINLMTHICKEQTVQYILTMVDDMLQENHQRVSIFFDYARCSKNTAWPYFLPMLNRQDPFTVHMAARIIAKLAAWGKELMEGSDLNYYFNWIKTQLSSQKLRGSGVAVETGTVSSSDSSQYVQCVAGCLQLMLRVNEYRFAWVEADGVNCIMGVLSNKCGFQLQYQMIFSIWLLAFSPQMCEHLRRYNIIPVLSDILQESVKEKVTRIILAAFRNFLEKSTERETRQEYALAMIQCKVLKQLENLEQQKYDDEDISEDIKFLLEKLGESVQDLSS
Q: B1 was tested. Which Kd did it give?
A: 9.2 µM
